Measured values published in IntAct's records for PubMed 31515488.

B1: Zinc finger protein 655 (Homo sapiens), Q8N720 (parent)
chain: MEEIPAQEAAGSPRVQFQSLETQSECLSPEPQFVQDTDMEQGLTGDGETREENKLLIPKQKISEEVHSYKVRVGRLKHDITQVPETREVYKSEDRLERLQEILRKFLYLEREFRQITISKETFTSEKNNECHEPEKSFSLDSTIDADQRVLRIQNTDDNDKYDMSFNQNSASGKHEHLNLTEDFQSSECKESLMDLSHLNKWESIPNTEKSYKCDVCGKIFHQSSALTRHQRIHTREKPYKCKECEKSFSQSSSLSRHKRIHTREKPYKCEASDKSCEASDKSCSPSSGIIQHKKIHTRAKSYKCSSCERVFSRSVHLTQHQKIHKEMPCKCTVCGSDFCHTSYLLEHQRVHHEEKAYEYDEYGLAYIKQQGIHFREKPYTCSECGKDFRLNSHLIQHQRIHTGEKAHECNECGKAFSQTSCLIQHHKMHRKEKSYECNEYEGSFSHSSDLILQQEVLTRQKAFDCDVWEKNSSQRAHLVQHQSIHTKENS
B2: Homeobox protein VENTX (Homo sapiens), O95231 (parent)
chain: MRLSSSPPRGPQQLSSFGSVDWLSQSSCSGPTHTPRPADFSLGSLPGPGQTSGAREPPQAVSIKEAAGSSNLPAPERTMAGLSKEPNTLRAPRVRTAFTMEQVRTLEGVFQHHQYLSPLERKRLAREMQLSEVQIKTWFQNRRMKHKRQMQDPQLHSPFSGSLHAPPAFYSTSSGLANGLQLLCPWAPLSGPQALMLPPGSFWGLCQVAQEALASAGASCCGQPLASHPPTPGRPSLGPALSTGPRGLCAMPQTGDAF
partner: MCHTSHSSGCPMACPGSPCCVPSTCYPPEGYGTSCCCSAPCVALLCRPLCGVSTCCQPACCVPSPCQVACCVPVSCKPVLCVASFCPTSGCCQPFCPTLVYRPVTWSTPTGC
B3: Zinc finger protein Aiolos (Homo sapiens), Q9UKT9 (parent)
chain: MEDIQTNAELKSTQEQSVPAESAAVLNDYSLTKSHEMENVDSGEGPANEDEDIGDDSMKVKDEYSERDENVLKSEPMGNAEEPEIPYSYSREYNEYENIKLERHVVSFDSSRPTSGKMNCDVCGLSCISFNVLMVHKRSHTGERPFQCNQCGASFTQKGNLLRHIKLHTGEKPFKCHLCNYACQRRDALTGHLRTHSVEKPYKCEFCGRSYKQRSSLEEHKERCRTFLQSTDPGDTASAEARHIKAEMGSERALVLDRLASNVAKRKSSMPQKFIGEKRHCFDVNYNSSYMYEKESELIQTRMMDQAINNAISYLGAEALRPLVQTPPAPTSEMVPVISSMYPIALTRAEMSNGAPQELEKKSIHLPEKSVPSERGLSPNNSGHDSTDTDSNHEERQNHIYQQNHMVLSRARNGMPLLKEVPRSYELLKPPPICPRDSVKVINKEGEVMDVYRCDHCRVLFLDYVMFTIHMGCHGFRDPFECNMCGYRSHDRYEFSSHIARGEHRALLK
partner: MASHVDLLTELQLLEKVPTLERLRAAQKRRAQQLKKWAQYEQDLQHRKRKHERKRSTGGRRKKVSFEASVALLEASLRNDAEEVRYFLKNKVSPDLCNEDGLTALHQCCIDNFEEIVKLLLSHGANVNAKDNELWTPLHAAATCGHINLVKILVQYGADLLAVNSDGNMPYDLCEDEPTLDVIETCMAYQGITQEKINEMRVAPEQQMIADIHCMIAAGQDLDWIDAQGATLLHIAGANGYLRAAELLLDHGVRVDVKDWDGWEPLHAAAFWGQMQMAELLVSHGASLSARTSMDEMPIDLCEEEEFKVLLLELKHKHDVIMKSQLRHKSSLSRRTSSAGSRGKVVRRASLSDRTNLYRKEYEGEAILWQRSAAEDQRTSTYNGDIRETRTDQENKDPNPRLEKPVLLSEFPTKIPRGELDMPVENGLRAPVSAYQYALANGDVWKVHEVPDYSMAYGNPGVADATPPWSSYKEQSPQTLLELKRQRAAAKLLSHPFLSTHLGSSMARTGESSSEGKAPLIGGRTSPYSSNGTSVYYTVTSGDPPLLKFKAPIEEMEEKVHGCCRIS
B4: THAP domain-containing protein 7 (Homo sapiens), Q9BT49 (parent)
chain: MPRHCSAAGCCTRDTRETRNRGISFHRLPKKDNPRRGLWLANCQRLDPSGQGLWDPASEYIYFCSKHFEEDCFELVGISGYHRLKEGAVPTIFESFSKLRRTTKTKGHSYPPGPAEVSRLRRCRKRCSEGRGPTTPFSPPPPADVTCFPVEEASAPATLPASPAGRLEPGLSSPFSDLLGPLGAQADEAGCSAQPSPERQPSPLEPRPVSPSAYMLRLPPPAGAYIQNEHSYQVGSALLWKRRAEAALDALDKAQRQLQACKRREQRLRLRLTKLQQERAREKRAQADARQTLKEHVQDFAMQLSSSMA
B5: Oxidative stress-induced growth inhibitor 1 (Homo sapiens), Q9UJX0 (parent)
chain: MSSSRKDHLGASSSEPLPVIIVGNGPSGICLSYLLSGYTPYTKPDAIHPHPLLQRKLTEAPGVSILDQDLDYLSEGLEGRSQSPVALLFDALLRPDTDFGGNMKSVLTWKHRKEHAIPHVVLGRNLPGGAWHSIEGSMVILSQGQWMGLPDLEVKDWMQKKRRGLRNSRATAGDIAHYYRDYVVKKGLGHNFVSGAVVTAVEWGTPDPSSCGAQDSSPLFQVSGFLTRNQAQQPFSLWARNVVLATGTFDSPARLGIPGEALPFIHHELSALEAATRVGAVTPASDPVLIIGAGLSAADAVLYARHYNIPVIHAFRRAVDDPGLVFNQLPKMLYPEYHKVHQMMREQSILSPSPYEGYRSLPRHQLLCFKEDCQAVFQDLEGVEKVFGVSLVLVLIGSHPDLSFLPGAGADFAVDPDQPLSAKRNPIDVDPFTYQSTRQEGLYAMGPLAGDNFVRFVQGGALAVASSLLRKETRKPP
partner: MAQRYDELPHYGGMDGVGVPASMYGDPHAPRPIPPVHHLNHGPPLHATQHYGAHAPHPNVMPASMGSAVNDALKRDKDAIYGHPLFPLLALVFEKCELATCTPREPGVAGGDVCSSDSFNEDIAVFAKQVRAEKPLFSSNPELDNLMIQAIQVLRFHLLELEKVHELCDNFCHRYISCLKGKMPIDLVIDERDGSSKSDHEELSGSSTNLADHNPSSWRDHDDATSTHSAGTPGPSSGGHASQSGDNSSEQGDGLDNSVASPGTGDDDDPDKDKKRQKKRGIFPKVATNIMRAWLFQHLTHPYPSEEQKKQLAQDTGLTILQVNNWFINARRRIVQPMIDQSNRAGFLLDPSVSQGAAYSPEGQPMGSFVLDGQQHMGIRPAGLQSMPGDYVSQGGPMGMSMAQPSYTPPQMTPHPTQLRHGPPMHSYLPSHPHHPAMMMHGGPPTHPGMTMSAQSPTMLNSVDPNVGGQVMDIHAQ

Variants of: B1
Settings: with rint1_human RINT1, Q6NUQ1
rint1_human RINT1, Q6NUQ1, sequence (Q6NUQ1 whole entry): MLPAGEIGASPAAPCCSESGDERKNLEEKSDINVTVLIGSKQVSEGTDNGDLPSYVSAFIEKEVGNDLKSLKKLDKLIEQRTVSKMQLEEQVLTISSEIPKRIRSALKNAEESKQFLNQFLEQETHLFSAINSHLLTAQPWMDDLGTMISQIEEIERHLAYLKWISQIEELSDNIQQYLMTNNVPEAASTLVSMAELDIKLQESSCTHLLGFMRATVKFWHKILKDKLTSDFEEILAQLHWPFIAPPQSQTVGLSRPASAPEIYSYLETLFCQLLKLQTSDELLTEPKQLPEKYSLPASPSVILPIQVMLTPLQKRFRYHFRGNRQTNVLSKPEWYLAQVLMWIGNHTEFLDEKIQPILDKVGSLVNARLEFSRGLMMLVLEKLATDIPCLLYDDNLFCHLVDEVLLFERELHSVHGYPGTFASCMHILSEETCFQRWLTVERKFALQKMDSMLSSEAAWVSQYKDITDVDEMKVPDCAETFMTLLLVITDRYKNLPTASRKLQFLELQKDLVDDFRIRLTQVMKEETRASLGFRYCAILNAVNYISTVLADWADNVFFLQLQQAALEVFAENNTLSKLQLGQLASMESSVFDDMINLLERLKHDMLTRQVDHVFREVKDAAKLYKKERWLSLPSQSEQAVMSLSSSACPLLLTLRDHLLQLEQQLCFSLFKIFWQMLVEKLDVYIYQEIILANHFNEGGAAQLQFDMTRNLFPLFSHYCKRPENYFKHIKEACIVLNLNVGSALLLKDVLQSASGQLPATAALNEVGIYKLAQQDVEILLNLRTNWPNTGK

Row | Variant | effect of a mutation on the interaction
1 | MEEIPAQEAAGSPRVQFQSLETQSECLSPEPQFVQDTDMEQGLTGDGETREENKLLIPKQKISEEVHSYKVRVGRLKHDITQVPETREVYKSEDRLERLQEILRKFLYLEREFRQITISKETFTSEKNNECHEPEKSFSLDSTIDADQRVLRIQNTDDNDKYDMSFNQNSASGKHEHLNLTEDFQSSECKERLMDLSHLNKWESIPNTEKSYKCDVCGKIFHQSSALTRHQRIHTREKPYKCKECEKSFSQSSSLSRHKRIHTREKPYKCEASDKSCEASDKSCSPSSGIIQHKKIHTRAKSYKCSSCERVFSRSVHLTQHQKIHKEMPCKCTVCGSDFCHTSYLLEHQRVHHEEKAYEYDEYGLAYIKQQGIHFREKPYTCSECGKDFRLNSHLIQHQRIHTGEKAHECNECGKAFSQTSCLIQHHKMHRKEKSYECNEYEGSFSHSSDLILQQEVLTRQKAFDCDVWEKNSSQRAHLVQHQSIHTKENS [S192R] | with no effect

Variants of: B2
Settings: with kr124_human KRTAP12-4, P60329

Row | Variant | effect of a mutation on the interaction
2 | MRLSSSPPRGPQQLSSFGSVDWLSQSSCSGPTHTPRPADFSLGSLPGPGQTSGAREPPQAVSIKEAAGSSNLPAPERTMAGLSKEPNTLRAPRVRTAFTMEQVRTLEGVFQHHQYLSPLERKRLAREMQLSEVQIKTWFQNRRMKHKRQMQDPQLHSPFSGSLHAPPAFYSTSSGLANGLQLLCPWAPLSGPQALMLPPGSFWGLCQVAQEALASAGASCCGQPLESHPPTPGRPSLGPALSTGPRGLCAMPQTGDAF [A226E] | with no effect
3 | MRLSSSPPRGPQQLSSFGSVDWLSQSSCSGPTHTPRPADFSPGSLPGPGQTSGAREPPQAVSIKEAAGSSNLPAPERTMAGLSKEPNTLRAPRVRTAFTMEQVRTLEGVFQHHQYLSPLERKRLAREMQLSEVQIKTWFQNRRMKHKRQMQDPQLHSPFSGSLHAPPAFYSTSSGLANGLQLLCPWAPLSGPQALMLPPGSFWGLCQVAQEALASAGASCCGQPLASHPPTPGRPSLGPALSTGPRGLCAMPQTGDAF [L42P] | with no effect
4 | MRLSSSPPRGPQQLSSFGSVDWLSQSSCSGPTHTPRPADFSLGSLPGPGQTSGAREPPQAVSIKEAAGSSNLPAPERTMAGLSKEPNTLRAPRVRTAFTMEQVRTLEGVFQHHQYLSPLERKRLAREMQLSEVQIKTWFQNRRMKHKRQMQDPQLHSPFSGSLHAPPAFYSTSSGLANGLQLLCPWAPLSGPQALMLPPGSFWGLCQVAQEALASAGASCCGQPLASHPPTPGRPSLGPALSTGPRGLCAVPQTGDAF [M251V] | with no effect

Variants of: B3
Settings: with pp16b_human PPP1R16B

Row | Variant | effect of a mutation on the interaction
5 | N119D | with no effect
6 | A24V | with no effect

Variants of: B4
Settings: with mdfi_human MDFI

Row | Variant | effect of a mutation on the interaction
7 | MPRHCSAAGCCTRDTRETRNRGISFHRLPKKDNPRRGLWLANCQRLDPSGQGLWDPASEYIYFCSKHFEEDCFELVGISGYHRLKEGAVPTIFESFSKLRRTTKTKGHSYPPGPAEVSRLRRCRKRCSEGRGPTTPFSPPPPADVTCFPVEEASAPATLPASPAGRLDPGLSSPFSDLLGPLGAQADEAGCSAQPSPERQPSPLEPRPVSPSAYMLRLPPPAGAYIQNEHSYQVGSALLWKRRAEAALDALDKAQRQLQACKRREQRLRLRLTKLQQERAREKRAQADARQTLKEHVQDFAMQLSSSMA [E168D] | disrupting interaction strength

Variants of: B4
Settings: with traf2_human TRAF2, Q12933
traf2_human TRAF2, Q12933, sequence (Q12933 whole entry): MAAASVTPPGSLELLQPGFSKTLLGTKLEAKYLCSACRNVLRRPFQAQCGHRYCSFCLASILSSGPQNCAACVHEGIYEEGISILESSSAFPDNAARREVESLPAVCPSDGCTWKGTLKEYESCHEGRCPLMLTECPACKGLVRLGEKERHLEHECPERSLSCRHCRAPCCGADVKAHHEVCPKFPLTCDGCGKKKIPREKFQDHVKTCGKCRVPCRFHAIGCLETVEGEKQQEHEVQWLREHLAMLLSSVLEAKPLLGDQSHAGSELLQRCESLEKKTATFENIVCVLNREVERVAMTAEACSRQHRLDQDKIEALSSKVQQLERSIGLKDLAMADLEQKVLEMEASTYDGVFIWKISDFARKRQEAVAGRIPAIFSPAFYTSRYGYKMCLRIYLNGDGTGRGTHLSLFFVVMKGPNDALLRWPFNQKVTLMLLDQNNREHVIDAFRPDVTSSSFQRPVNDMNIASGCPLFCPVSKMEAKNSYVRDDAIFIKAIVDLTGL

Row | Variant | effect of a mutation on the interaction
8 | MPRHCSAAGCCTRDTRETRNRGISFHRLPKKDNPRRGLWLANCQRLDPSGQGLWDPASEYIYFCSKHFEEDCFELVGISGYHRLKEGAVPTIFESFSKLRRTTKTKGHSYPPGPAEVSRLRRCRKRCSEGRGPTTPFSPPPPADVTCFPVEEASAPATLPASPAGRLDPGLSSPFSDLLGPLGAQADEAGCSAQPSPERQPSPLEPRPVSPSAYMLRLPPPAGAYIQNEHSYQVGSALLWKRRAEAALDALDKAQRQLQACKRREQRLRLRLTKLQQERAREKRAQADARQTLKEHVQDFAMQLSSSMA [E168D] | with no effect

Variants of: B4
Settings: with set_human SET

Row | Variant | effect of a mutation on the interaction
9 | MPRHCSAAGCCTRDTRETRNRGISFHRLPKKDNPRRGLWLANCQRLDPSGQGLWDPASEYIYFCSKHFEEDCFELVGISGYHRLKEGAVPTIFESFSKLRRTTKTKGHSYPPGPAEVSRLRRCRKRCSEGRGPTTPFSPPPPADVTCFPVEEASAPATLPASPAGRLDPGLSSPFSDLLGPLGAQADEAGCSAQPSPERQPSPLEPRPVSPSAYMLRLPPPAGAYIQNEHSYQVGSALLWKRRAEAALDALDKAQRQLQACKRREQRLRLRLTKLQQERAREKRAQADARQTLKEHVQDFAMQLSSSMA [E168D] | with no effect

Variants of: B5
Settings: with meis2_human MEIS2, O14770

Row | Variant | effect of a mutation on the interaction
10 | MSSSRKDHLGASSSEPLPVIIVGNGPSGICLSYLLSGYTPYTKPDAIHPHPLLQRKLTEAPGVSILDQDLDYLSEGLEGRSQSPVALLFDALLRPDTDFGGNMKSVLTWKHRKEHAIPHVVLGRNLPGGAWHSIEGSMVILSQGQWMGLPDLEVKDWMQKKRRGLRNSRATAGDIAHYYRDYVVKKGLGHNFVSGAVVTAVEWGTPDPSSCGAQDSSPLFQVSGFLTRNQAQQPFLLWARNVVLATGTFDSPARLGIPGEALPFIHHELSALEAATRVGAVTPASDPVLIIGAGLSAADAVLYARHYNIPVIHAFRRAVDDPGLVFNQLPKMLYPEYHKVHQMMREQSILSPSPYEGYRSLPRHQLLCFKEDCQAVFQDLEGVEKVFGVSLVLVLIGSHPDLSFLPGAGADFAVDPDQPLSAKRNPIDVDPFTYQSTRQEGLYAMGPLAGDNFVRFVQGGALAVASSLLRKETRKPP [S236L] | with no effect
